The values that follow come from publication PMC3464233, “Structural Basis of Differential Neutralization of DENV-1 Genotypes by an Antibody that Recognizes a Cryptic Epitope” (PLoS Pathogens, 2012).

The target in assay [1] is DENV-1 strain 16007 E protein domain III (residues 293-399) (Dengue virus 1 (strain 16007, genotype 2)).
Assay [2] has as its target DENV-1 strain TVP-2130 E protein domain III (Dengue virus 1 (strain TVP-2130, genotype 1)).
Assay [3] addresses DENV-1 strain 16007 E protein domain III (residues 293-399) (Dengue virus 1 (strain 16007, genotype 2)). This is another data set of the same source.
Assay [4] addresses DENV1-E111 monoclonal antibody. In words: SPR; Biacore T100; about 500 RU of E111 MAb or scFv amine-coupled to a Series S CM5 chip; two-fold dilution series of DIII variants injected 180 s, dissociation 1,000 s; 25°C; double referencing against WNV E16 MAb/scFv flow cell; 1:1 Langmuir fit. In general terms: Surface plasmon resonance follows binding to a sensor surface in real time, without labels.

The target of assay [5] is DENV1-E111 monoclonal antibody. In words: not stated; half-life of binding of 16007 DIII K343I with E111; unpublished results.
Assay [6] has as its target T1, DENV-1 strain Western Pacific-74 E protein domain III (residues 293-399) (Dengue virus 1, strain Nauru/Western …, strain).
T1 chain: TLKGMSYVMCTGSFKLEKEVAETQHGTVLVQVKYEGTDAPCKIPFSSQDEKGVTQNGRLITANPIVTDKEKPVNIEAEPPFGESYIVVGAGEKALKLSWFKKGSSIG
In words: cell-based or functional assay.

Assay [7] deals with DENV-1 West Pac-74 DIII V345A (Dengue virus 1 (strain Western Pacific-74, genotype 4)).
The target in assay [8] is DENV-1 strain 3146 SL E protein domain III (Dengue virus 1 (strain 3146 SL, genotype 5)).
Assay [9] addresses DENV-1 strain TVP-5175 E protein domain III (Dengue virus 1 (strain TVP-5175, genotype 3)).
In assay [10] the target is DENV-1 strain 3146 SL E protein domain III (Dengue virus 1 (strain 3146 SL, genotype 5)). The source holds these as a separate data set.
For assay [11], the target named is T1, DENV-1 strain Western Pacific-74 E …. In words: SPR; Biacore T100; about 500 RU of E111 MAb or scFv amine-coupled to a Series S CM5 chip; two-fold dilution series of DIII variants injected 180 s, dissociation 1,000 s; 25°C; double referencing against WNV E16 MAb/scFv flow cell; 1:1 Langmuir fit. As to conditions: both partners purified.
Assay [12] has the same target. Described as above. As to conditions: both partners purified.
Assay [13] concerns the target E111 single-chain variable fragment (VL at the N-terminus). In words: SEC; E111 scFv after nickel affinity; two species resolved. (SEC sorts molecules by how far they enter the pores of the column.)
For assay [14], the target named is T2, DENV-1 strain 16007 E protein domain III (residues 293-399) (Dengue virus 1, strain 16007 (genotype …, strain)).
T2 construct: Dengue virus 1 strain 16007 (genotype 2), envelope (E) protein domain III, residues 293-399; untagged; also called 16007 DIII; DIII of 16007; source: BL21 bacterial cells (pET21a, autoinduction); inclusion bodies solubilized and oxidatively re-folded
T2 chain: T1 chain with S47T, V53A
Put plainly: SPR; Biacore T100; about 500 RU of E111 MAb or scFv amine-coupled to a Series S CM5 chip; two-fold dilution series of DIII variants injected 180 s, dissociation 1,000 s; 25°C; double referencing against WNV E16 MAb/scFv flow cell; 1:1 Langmuir fit. Conditions: both partners purified.

Substitutions are numbered along the chain they refer to.

Turning to DENV1-E111 monoclonal antibody, in [1], the EC50 of neutralisation of 16007 RVP after incubation with E111 at 37°C (1 to 22 h) or 40°C (to 4.5 h); fold increase in potency at 40°C for 4.5 h came to 3.5 fold. In assay [2], this molecule returned a PRNT50, plaque reduction neutralisation of DENV-1 TVP-2130 (genotype 1) on Vero cells greater than 25000 ng/mL. In [3], this molecule registered a PRNT50, plaque reduction neutralisation of DENV-1 16007 (genotype 2) on Vero cells of 3.8 ng/mL.

What is called Kd is the equilibrium constant for the complex coming apart. Low values mean higher affinity, high ones lower affinity. In general, koff refers to the first-order rate constant of dissociation. A higher koff goes with fast dissociation. The kon is the second-order rate constant of association. In [4], “DENV-1 16007 DIII A345V (domain or fragment)” registered a Kd of 1140 nM, a koff of 0.131 s⁻¹, a kon of 114000 M⁻¹ s⁻¹ and a t1/2 of 0.0883 min.

With “DENV-1 16007 DIII A369T (domain or fragment)”, in [4], the Kd was determined as 25.3 nM, the koff turned out to be 0.00383 s⁻¹, the kon is 151000 M⁻¹ s⁻¹ and the t1/2 is 3.04 min.

In assay [4], “DENV-1 16007 DIII D341N (domain or fragment)” displayed a Kd of 18.9 nM, a koff of 0.00402 s⁻¹, a kon of 213000 M⁻¹ s⁻¹ and a t1/2 of 2.88 min.

In [4], “DENV-1 16007 DIII K310E/T329E/K361T (domain or fragment)” had a Kd of 39.8 nM, a koff of 0.00457 s⁻¹, a kon of 121000 M⁻¹ s⁻¹ and a t1/2 of 2.58 min.

Molecule “DENV-1 16007 DIII K343I (domain or fragment)” returned a t1/2 in [5] of 45 min.

Take “DENV-1 16007 DIII L351V (domain or fragment)”: in assay [4], the Kd is 107 nM, the koff was found to be 0.0237 s⁻¹, the kon amounted to 211000 M⁻¹ s⁻¹ and the t1/2 was 0.548 min.

In assay [4], “DENV-1 16007 DIII T339S (domain or fragment)” registered a Kd of 16.6 nM, a koff of 0.00313 s⁻¹, a kon of 191000 M⁻¹ s⁻¹ and a t1/2 of 3.71 min.

Consider “DENV-1 16007 DIII V380I (domain or fragment)”, for which, in [4], the Kd came out at 19 nM, the koff was determined as 0.00236 s⁻¹, the association rate constant (kon) is 124000 M⁻¹ s⁻¹ and the t1/2 amounted to 4.94 min.

Take “DENV-1 strain 3146 SL E protein domain III (domain or fragment)”: in assay [4], the Kd was 523 nM, the dissociation rate constant (koff) stood at 0.142 s⁻¹, the kon is 267000 M⁻¹ s⁻¹ and the t1/2 came to 0.0917 min.

Take “DENV-1 strain 16007 E protein domain III (residues 293-399) (domain or fragment)”: in [4], the Kd turned out to be 18 nM, the koff was determined as 0.00356 s⁻¹, the kon was determined as 198000 M⁻¹ s⁻¹ and the t1/2 came to 3.23 min.

As to “DENV-1 strain TVP-5175 E protein domain III (domain or fragment)”, in [4], the Kd worked out at 1980 nM, the koff was 0.312 s⁻¹, the kon is 162000 M⁻¹ s⁻¹ and the t1/2 came to 0.0367 min.

B1: DENV1-E111 monoclonal antibody (antibody, V domains shown)
VH: QVQLLQPGAELVKPGASMKLSCKASGYTFTNWWMHWVRLRPGRGLEWIGRIDPNSDVNKYNEKFENRASLTVDKHSSTAYMQLSSLTSEDSAIYYCARWFFPWYFDVWGTGTTVTVSS
VL: NIVLTQSPASLAVSLGQRATISCRASESVDHYGNSFIYWYQQKPGQPPKLLIYLASNLESGVPARFSGSGSETDFTLTIDSVETDDAATYYCQQNNEDPYTFGGGTKLEIK
notes: also called E111 MAb; E111 IgG; source: E111 hybridoma
With B1, the “EC50 of neutralisation of West Pac-74 RVP after incubation with E111 at 37°C (1 to 22 h) or 40°C (to 4.5 h); fold reduction at 40°C for 4.5 h” value in assay [6] was 20 fold. Further, the neutralisation of V345A West Pac-74 RVP against wild-type West Pac-74 RVP, Raji-DC-SIGNR cells, fold enhancement in assay [7] turned out to be 3.6 fold. Moreover, in assay [8], the PRNT50, plaque reduction neutralisation of DENV-1 3146 SL (genotype 5) on Vero cells amounted to 21 ng/mL. The PRNT50, plaque reduction neutralisation of DENV-1 TVP-5175 (genotype 3) on Vero cells in [9] was greater than 25000 ng/mL. This molecule gave an EC50, plaque reduction neutralisation of DENV-1 3146 SL (genotype 5) in [10] of 0.022 µg/mL. In [11], this molecule returned a Kd of 416 nM, a koff of 0.106 s⁻¹, a kon of 256000 M⁻¹ s⁻¹ and a t1/2 of 0.108 min. The molecule also displayed a Kd in [12] of 415 ± 24 nM.

B2: E111 single-chain variable fragment (VL at the N-terminus) (scFv, V domains shown)
VH: B1 VH
VL: B1 VL
notes: E111 VL; as the VL of the light chain of m1; (GGGGS)3 linker; E111 VH; as the VH of the heavy chain of m1; The monomeric species was used for the structure; a second construct with VH first was also made but not used; also called E111 scFv
Broadly, the stoichiometry N is the number of molecules, sites or subunits per partner or assembly. Consider B2, for which, in assay [13], the stoichiometry N was 2. Also, in assay [11], the Kd stood at 1830 nM, the koff amounted to 0.275 s⁻¹, the kon amounted to 151000 M⁻¹ s⁻¹ and the t1/2 was 0.0422 min. In assay [14], this molecule gave a Kd of 24.6 nM, a koff of 0.00695 s⁻¹, a kon of 288000 M⁻¹ s⁻¹ and a t1/2 of 1.68 min.
